Blank lines part the entries; values can stand above or below the molecule they belong to.
Legend:
HLA-A*02:01 [1] = molecular target: HLA-A*02:01 (Homo sapiens, UniProt P04439, D140Y/D185E/D98H/E176V/E277Q/G131W/G231S/I119V/I121R/I166T/I218V/L300P/L318F/N151K/N90K/P208A/P217A/Q86G/Q94H/R138H/R169H/T345S); experiment: T2 peptide binding (stabilization) assay; format: cell-based; conditions: peptides exogenously pulsed on T2 cells; anti-HLA-A2 FITC (BB7.2), FACS
[2] = men with metastatic castration-resistant prostate cancer; cited from earlier work
PAP = molecular target: T1, PAP (Homo sapiens, UniProt P15309); conditions: positive response SI>5 at week 6 post immunization; cited from earlier work
T1 sequence (P15309 33-386): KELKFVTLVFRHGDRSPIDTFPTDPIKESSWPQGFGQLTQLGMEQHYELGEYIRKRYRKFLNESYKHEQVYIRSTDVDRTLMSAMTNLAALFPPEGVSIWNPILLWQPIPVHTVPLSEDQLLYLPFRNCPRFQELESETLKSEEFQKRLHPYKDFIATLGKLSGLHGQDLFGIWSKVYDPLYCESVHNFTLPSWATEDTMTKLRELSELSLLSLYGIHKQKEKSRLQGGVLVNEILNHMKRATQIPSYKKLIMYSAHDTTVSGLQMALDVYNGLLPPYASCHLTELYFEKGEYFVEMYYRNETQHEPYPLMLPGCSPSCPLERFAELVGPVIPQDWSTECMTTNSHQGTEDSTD

PAP+ target cells = conditions: video evidence; cited from earlier work
HLA-A*02:01 [3] = molecular target: T2, HLA-A*02:01 (Homo sapiens, UniProt P04439, D140Y/D185E/D98H/E176V/E277Q/G131W/G231S/I119V/I121R/I166T/I218V/L300P/L318F/N151K/N90K/P208A/P217A/Q86G/Q94H/R138H/R169H/T345S/Y108C); experiment: Secreted single-chain trimer (SCT) quantification assay
T2 construct: made in house
Description: Peptide-MHC I complexes processed by endogenous machinery might show different stability compared to exogenous peptide pulsing (such as in T2 binding assays). This can be the result of post-translational modifications (PTMs). A recently developed technique, secreted single-chain trimer (SCT), was used to evaluate relative stability of pMHC of interest (36). In the secreted SCT construct, MHC I heavy chain (HLA-A*02:01 alpha chain with H74L and Y84C mutation), light chain (beta-microglobulin), and corresponding peptide were tethered by linkers as one single chain molecule (FIG. 3a). Constructs were expressed in cells and released into culture supernatant. Only peptides favored by HLA-A*02:01 are expected to generate a stable SCT and have higher yields. The quantity of SCTs was measured by band intensity on SDS-PAGE and normalized against a well-known WT1 cancer epitope that is restricted on HLA-A*02:01 ([…]) (FIG. 3b) (37, 38).
SCT quantification assay: SCT constructs (mutant H74L/Y84C) with individual PAP peptides were synthesized according to the previously published protocol (36).

[4] = molecular target: T3, prostatic acid phosphatase (PAP); peptide PAP_A2_25 peptide on HLA-A*02:01 (human); experiment: cytokine release
T3 peptide: IMYSAHDTTV

[5] = molecular target: T4, prostatic acid phosphatase (PAP); peptide PAP_A2_21 peptide on HLA-A*02:01 (human); experiment: activation reporter or marker
T4 peptide: LLLARAASLSL

[6] = molecular target: T5, prostatic acid phosphatase (PAP); peptide PAP_A2_14 peptide on HLA-A*02:01 (human); experiment: multimer staining
T5 peptide: ILLWQPIPV

HLA-A*02:01 on T2 cells [7] = molecular target: T6, HLA-A*02:01 on T2 cells (human); experiment: T2 stabilization assay, HLA-A2 on T2 cells by anti-A2 (BB7.2) FITC flow cytometry
T6 construct: also called HLA-A2; A2

HLA-A*02:01 on T2 cells [8] = molecular target: T6, HLA-A*02:01 on T2 cells; experiment: T2 binding assay, HLA-A2 on T2 cells by anti-A2 (BB7.2) FITC flow cytometry

Molecule: sipuleucel-T
median improvement in overall survival [2]: 4.1 months | patients displaying T cell proliferation responses to PAP (PAP): 27.2% | lysis of PAP+ target cells by T cells from treated patients (PAP+ target cells): capable of lysing

Molecule: SVHNFTLPSW (listed as Homo sapiens) [PAP-A2-24]
affinity toward HLA-A*02:01 after glycosylation (HLA-A*02:01 [3]; N-glycosylated peptide in SCT): altered affinity | SCT yield normalized to control WT1 epitope (RMFPNAPYL) (HLA-A*02:01 [3]; band intensity on SDS-PAGE, cutoff 0.2 for relatively high stability): 1.40

Molecule: ILLWQPIPV (listed as Homo sapiens) [PAP-A2-14]
HLA-A2 signal in T2 assay (slope of natural log of A2 fluorescent intensity vs diluted peptide concentration) (HLA-A*02:01 [1]): Positive

B1: PAP-TCR-213 (TCR, V domains shown)
Valpha: TQLLEQSPQFLSIQEGENLTVYCNSSSVFSSLQWYRQEPGEGPVLLVTVVTGGEVKKLKRLTFQFGDARKDSSLHITAAQPGDTGLYLCAGAPETSGSRLTFGEGTQLTVNP
Vbeta: GAGVSQTPSNKVTEKGKYVELRCDPISGHTALYWYRQSLGQGPEFLIYFQGTGAADDSGLPNDRFFAVRPEGSVSTLKIQRTERGDSAVYLCASSFGGGSSPLHFGNGTRLTVT
binding result [4]: recognises

B6: PAP-A2-20 peptide KVYDPLYCESV (peptide)
peptide: KVYDPLYCESV
binding result (HLA-A*02:01 on T2 cells [7]): binds

B7: PAP-A2-22 peptide TLMSAMTNL (peptide)
peptide: TLMSAMTNL
binding result (HLA-A*02:01 on T2 cells [8]): binds

The remaining lines, values ahead:

HLA-A2 signal in T2 assay (slope of natural log of A2 fluorescent intensity vs diluted peptide concentration) (HLA-A*02:01 [1]): Positive
Molecule: LLLARAASLSL (listed as Homo sapiens) [PAP-A2-21]

HLA-A2 signal in T2 assay (slope of natural log of A2 fluorescent intensity vs diluted peptide concentration) (HLA-A*02:01 [1]): Positive
Molecule: KVYDPLYCESV (listed as Homo sapiens) [PAP-A2-20]

HLA-A2 signal in T2 assay (slope of natural log of A2 fluorescent intensity vs diluted peptide concentration) (HLA-A*02:01 [1]): Positive
Molecule: IMYSAHDTTV (listed as Homo sapiens) [PAP-A2-25]

binding result [5]: recognises
B2: PAP-TCR-175 (TCR, V domains shown)
Valpha: ILNVEQSPQSLHVQEGDSTNFTCSFPSSNFYALHWYRWETAKSPEALFVMTLNGDEKKKGRISATLNTKEGYSYLYIKGSQPEDSATYLCAFEDSGYSTLTFGKGTMLLVSP
Vbeta: DAGITQSPRYKITETGRQVTLMCHQTWSHSYMFWYRQDLGHGLRLIYYSAAADITDKGEVPDGYVVSRSKTENFPLTLESATRSQTSVYFCASGGLAGVDEQYFGPGTRLTVT

binding result [6]: recognises
B3: PAP-TCR-204 (TCR, V domains shown)
Valpha: AQSVTQPDIHITVSEGASLELRCNYSYGATPYLFWYVQSPGQGLQLLLKYFSGDTLVQGIKGFEAEFKRSQSSFNLRKPSVHWSDAAEYFCAVGAGDYKLSFGAGTTVTVRA
Vbeta: ETGVTQTPRHLVMGMTNKKSLKCEQHLGHNAMYWYKQSAKKPLELMFVYSLEERVENNSVPSRFSPECPNSSHLFLHLHTLQPEDSALYLCASSQTTGQPQHFGDGTRLSIL

binding result (HLA-A*02:01 on T2 cells [7]): binds
B4: PAP-A2-21 peptide LLLARAASLSL (peptide)
peptide: LLLARAASLSL
notes: also called PAP-21

binding result [5]: recognises
B5: PAP-TCR-225 (TCR, V domains shown)
Valpha: DQQVKQNSPSLSVQEGRISILNCDYTNSMFDYFLWYKKYPAEGPTFLISISSIKDKNEDGRFTVFLNKSAKHLSLHIVPSQPGDSAVYFCAASVDEKLTFGTGTRLTIIP
Vbeta: DTGVSQNPRHKITKRGQNVTFRCDPISEHNRLYWYRQTLGQGPEFLTYFQNEAQLEKSRLLSDRFSAERPKGSFSTLEIQRTEQGDSAMYLCASSLQVEQFFGPGTRLTVL

— US20250161357A1, “HUMAN T CELL RECEPTOR PAIRS REACTIVE WITH HLA-A*02:01 RESTRICTED HUMAN PROSTATIC ACID PHOSPHATASE (PAP) EPITOPES” (The Regents of the University of California, priority 2022, published 2025)
